According to publication PMC9065369 (Cell Reports, 2022):

Biological target: Mono ubiquitin (UniProt P0CG48 1-76)
Test: ITC

B1: hsHDAC6 (1108-1215) (domain or fragment)
chain: TPLPWCPHLVAVCPIPAAGLDVTQPCGDCGTIQENWVCLSCYQVYCGRYINGHMLQHHGNSGHPLVLSYIDLSAWCYYCQAYVHHQALLDVKNIAHQNKFGEDMPHPH
  Kd: 5.16 ± 0.47 µM
